PMC10478522

How the values were obtained:
[1] = target: type IC cascade from Neisseria lactamica (NlaCascade/crRNA complex) (Neisseria lactamica); experiment: SPR; BIAcore T200, NlaCascade/crRNA complex captured on a Ni-NTA chip (711-826 RU), AcrIC9 injected in twofold dilutions from 125 nM (8 to 125 nM), HBS-P buffer (0.01 M HEPES pH 7.4, 0.15 M NaCl, 0.005% P20), 25°C, 1:1 binding model
[2] = target: AcrIC9 from Rhodobacter capsulatus (Rhodobacter capsulatus); experiment: SEC-MALS; purified AcrIC9 alone on Superdex 200 Increase 10/300 GL, 20 mM Tris-HCl pH 8.0, 150 mM NaCl, room temperature; dimer to monomers
[3] = target: type IC cascade from Neisseria lactamica with crRNA (Neisseria lactamica); experiment: SPR; BIAcore T200; NlaCascade/crRNA complex captured on a Ni-loaded NTA chip (711-826 RU); AcrIC9 injected in twofold dilutions from 125 nM at 30 ul/min, 120 s contact, 240 s dissociation; 25 °C; HBS-P buffer (0.01 M HEPES pH 7.4, 0.15 M NaCl, 0.005% Surfactant P20); 1:1 binding model

B1: AcrIC9 from Rhodobacter capsulatus (natural protein)
chain: METKMTSFYKITAYNSQALYFWGTDADVDRYVDWLNRDREINVYAAEAIPEAEWAQYEGRDDVLSGEECGWDDFMSAEA
In the case of B1, the Kd [1] is reported as 4.32 nM, the stoichiometry N [2] is reported as 2 and the Kd [3] is reported as 43.2 nM. The koff [3] was 0.00404 s⁻¹ and the kon [3] was 93500 M⁻¹ s⁻¹.
